According to PMC10413350, “Kinetic and structural characterization of carboxyspermidine dehydrogenase of polyamine biosynthesis” (The Journal of Biological Chemistry, 2023):
Values belong to the molecule of their own block, whether it stands above or below them.

Tests used:
[1] = target: Clostridium leptum carboxyspermidine dehydrogenase (Clostridium leptum); test: SEC; HiLoad 16/600 Superdex 200, 25 mM Tris pH 8; 100 ul of 10 mg/ml (BfCASDH) or 5 mg/ml (ClCASDH) injected
BfCASDH = target: T1, BfCASDH (Bacteroides fragilis, UniProt I9VY56); test: intrinsic tryptophan fluorescence quenching (ex […] nm, em […] nm), sigmoidal fit; format: binding
T1 construct: gene HMPREF1080_01141; full length (397 residues modelled per chain), N-terminal hexahistidine tag kept, pET-28b, E. coli BL21 (DE3)
T1 sequence (I9VY56 1-397): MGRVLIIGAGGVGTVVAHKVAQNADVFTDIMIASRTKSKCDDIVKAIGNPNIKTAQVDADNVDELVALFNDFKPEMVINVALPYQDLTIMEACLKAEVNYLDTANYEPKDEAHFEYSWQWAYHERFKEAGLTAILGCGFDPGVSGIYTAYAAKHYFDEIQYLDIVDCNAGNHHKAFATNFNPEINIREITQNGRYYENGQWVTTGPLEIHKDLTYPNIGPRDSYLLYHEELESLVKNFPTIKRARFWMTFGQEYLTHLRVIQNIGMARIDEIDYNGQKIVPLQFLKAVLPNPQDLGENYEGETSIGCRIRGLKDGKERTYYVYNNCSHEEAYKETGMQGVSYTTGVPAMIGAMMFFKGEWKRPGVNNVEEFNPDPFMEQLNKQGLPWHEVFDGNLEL

[2] = target: Bacteroides fragilis carboxyspermidine dehydrogenase (Bacteroides fragilis); test: SEC; HiLoad 16/600 Superdex 200, 25 mM Tris pH 8; 100 ul of 10 mg/ml (BfCASDH) or 5 mg/ml (ClCASDH) injected
purified protein [3] = substrate: NC(=O)C1=CN([C@@H]2O[C@H](COP(=O)(O)OP(=O)(O)OC[C@H]3O[C@@H](n4cnc5c(N)ncnc54)[C@H](OP(=O)(O)O)[C@@H]3O)[C@@H](O)[C@H]2O)C=CC1; test: purified protein; format: biochemical, [Clostridium] leptum; settings: apparent, 2.5 mM ASA (subsaturating), 20 mM putrescine, 25 mM Tris pH 7.5, varied: cofactor
purified protein [4] = substrate: NCCCCN; test: purified protein; format: biochemical, [Clostridium] leptum; settings: apparent, 2.5 mM ASA (subsaturating), 150 uM NADPH, 25 mM Tris pH 7.5
purified protein [5] = substrate: NCCCN; test: purified protein; format: biochemical, [Clostridium] leptum; settings: apparent, 2.5 mM ASA (subsaturating), 150 uM NADPH, 25 mM Tris pH 7.5
purified protein [6] = substrate: NC(=O)C1=CN([C@@H]2O[C@H](COP(=O)(O)OP(=O)(O)OC[C@H]3O[C@@H](n4cnc5c(N)ncnc54)[C@H](OP(=O)(O)O)[C@@H]3O)[C@@H](O)[C@H]2O)C=CC1; test: purified protein; format: biochemical, Bacteroides fragilis; settings: apparent, 2.5 mM ASA (subsaturating), 20 mM putrescine, 25 mM potassium phosphate pH 7.5, varied: cofactor
purified protein [7] = substrate: NCCCCN; test: purified protein; format: biochemical, Bacteroides fragilis; settings: apparent, from Hill equation (half-saturation), 2.5 mM ASA (subsaturating), 150 uM NADPH, 25 mM potassium phosphate pH 7.5
purified protein [8] = substrate: NCCCN; test: purified protein; format: biochemical, Bacteroides fragilis; settings: apparent, from Hill equation (half-saturation), 2.5 mM ASA (subsaturating), 150 uM NADPH, 25 mM potassium phosphate pH 7.5
purified protein [9] = substrate: N[C@@H](CC=O)C(=O)O; test: purified protein; format: biochemical, Bacteroides fragilis; settings: apparent, from Hill equation (half-saturation), 20 mM putrescine, 150 uM NADPH, 25 mM potassium phosphate pH 7.5, substrate inhibition above 2.5 mM

- stoichiometry N [1]: 2
Molecule: Clostridium leptum carboxyspermidine dehydrogenase (enzyme)

Molecule: NCCCN [DAP]
- Kd (BfCASDH): 15 ± 2 mM

- stoichiometry N [2]: 2
Molecule: Bacteroides fragilis carboxyspermidine dehydrogenase (enzyme)

Molecule: NCCCCN [putrescine]
- Kd (BfCASDH): 11 ± 1 mM

B1: ClCASDH ([Clostridium] leptum DSM 753) (protein)
chain: MGKALIIGCGGVASVAIHKCCQNSGVFEEICIASRTKSKCDALKEKLSGGKTKITTAQVDANSVDELTALINQVKPDVVLNLALPYQDLTIMEACLAAKVNYVDTANYEPEDTAKFEYSWQWAYRKKFEDAGITALLGSGFDPGVTGVFSAYAQKHYFDEINYIDILDCNAGDHGYPFATNFNPEINIREVSAKGSYWEDGHWVETEPMEIKRVYNFPEIGDKDMYLLHHEELESLALNIKGIKRIRFFMTFGQSYLTHLKCLEDVGMTSIEPIEFQGQQIVPLQFLKAVLPDPSSLGPRTKGKTNIGCIFQGKKDGKDKTYYVYNVCDHQECYKEVGSQAVAYTTGVPAMIGAMMLMTGVWNKPGVHNIEEFDPDPFMDALNKWGLPWKESFSPELVD
notes: full length, N-terminal hexahistidine tag, pET-28b, E. coli BL21 (DE3)
- Km (purified protein [3]): 16 ± 2 µM
- kcat (purified protein [3]): 0.22 ± 0.02 s⁻¹
- kcat/Km (purified protein [3]): 13800 ± 900 M⁻¹ s⁻¹
- Km (purified protein [4]): 5000 ± 600 µM
- kcat (purified protein [4]): 0.37 ± 0.01 s⁻¹
- kcat/Km (purified protein [4]): 74 ± 10 M⁻¹ s⁻¹
- Km (purified protein [5]): 6900 ± 1100 µM
- kcat (purified protein [5]): 0.49 ± 0.03 s⁻¹
- kcat/Km (purified protein [5]): 71 ± 12 M⁻¹ s⁻¹

B2: BfCASDH (Bacteroides fragilis CL05T12C13) (protein)
chain: MGRVLIIGAGGVGTVVAHKVAQNADVFTDIMIASRTKSKCDDIVKAIGNPNIKTAQVDADNVDELVALFNDFKPEMVINVALPYQDLTIMEACLKAEVNYLDTANYEPKDEAHFEYSWQWAYHERFKEAGLTAILGCGFDPGVSGIYTAYAAKHYFDEIQYLDIVDCNAGNHHKAFATNFNPEINIREITQNGRYYENGQWVTTGPLEIHKDLTYPNIGPRDSYLLYHEELESLVKNFPTIKRARFWMTFGQEYLTHLRVIQNIGMARIDEIDYNGQKIVPLQFLKAVLPNPQDLGENYEGETSIGCRIRGLKDGKERTYYVYNNCSHEEAYKETGMQGVSYTTGVPAMIGAMMFFKGEWKRPGVNNVEEFNPDPFMEQLNKQGLPWHEVFDGNLEL
notes: full length (397 residues modelled per chain), N-terminal hexahistidine tag kept, pET-28b, E. coli BL21 (DE3)
- Km (purified protein [6]): 57 ± 3 µM
- kcat (purified protein [6]): 0.39 ± 0.05 s⁻¹
- kcat/Km (purified protein [6]): 6700 ± 200 M⁻¹ s⁻¹
- K0.5 (purified protein [7]): 4.2 ± 0.3 mM
- kcat (purified protein [7]): 0.41 ± 0.02 s⁻¹
- kcat/Km (purified protein [7]): 96 ± 7 M⁻¹ s⁻¹
- K0.5 (purified protein [8]): 19.7 ± 3.6 mM
- kcat (purified protein [8]): 0.34 ± 0.03 s⁻¹
- kcat/Km (purified protein [8]): 17 ± 3 M⁻¹ s⁻¹
- K0.5 (purified protein [9]): 2.7 ± 0.1 mM
- kcat (purified protein [9]): 0.64 ± 0.02 s⁻¹
- kcat/Km (purified protein [9]): 230 ± 15 M⁻¹ s⁻¹
